Values of other authors as cited in article PMC4828448.
pKd: −log10 of the molar value.

Biological target: nisin (Lactococcus lactis) (UniProt P13068)
Chain of UniProt P13068 (P13068 24-57): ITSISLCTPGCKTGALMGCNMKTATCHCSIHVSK

pKd: 6.00
Substance: NisI (from UniProt P42708)
